The source of these data is article PMC7385124, “The molecular basis of thioalcohol production in human body odour” (Scientific Reports, 2020).

For data set [1], the system named is CC(C)(CCO)SC[C@H](N)C(=O)O. In words: purified protein, by the assay type. Also noted: DTNB thiol release, A412, continuous steady-state Michaelis-Menten kinetics of C-S lyase. The settings on record: pH 7.8; 37.0 °C. The procedure:
(§1) In vitro activity assays were performed using an Epoch2 (BioTek) plate reader. Reactions were measured in 96-well plate. A continuous assay, described previously[3] was used to measure 3M3SH. A 200 μL reaction contained […], variable amounts of substrate and 0.4 mM DTNB in 50 mM KPi and 200 mM NaCl, pH 7.8. […] Each reaction was incubated at 37 °C for 30 min. Release of the thiol 3M3SH was measured by reaction with DTNB to form 2-nitro-5-thiobenzoic acid (TNB) which is measured at A412 nm every minute. Background rate of DTNB decomposition was subtracted in each assay. Michaelis–Menten plots were derived from 6 to 8 substrate concentrations using Prism Version 5.01 (GraphPad) to calculate the Kcat and KM. Enzyme concentrations were assumed to be the concentration of PLP-bound enzyme with two active sites per enzyme. Velocity curves for all in vitro kinetics are shown in the supplementary information (Supplementary Information Figures S10–S12). Next, we cloned and overexpressed genes encoding a representative range of PatB-type enzymes, with two MetC proteins as controls (Fig. 2, denoted by coloured dots) and purified the proteins for biochemical analysis.

For data set [2], the system named is CCCC(C)(CCO)SC[C@H](N)C(=O)O. Put plainly: purified protein, by the assay type. To be noted: pH 7.8; 37.0 °C. The arrangement: DTNB thiol release, A412, continuous steady-state Michaelis-Menten kinetics of C-S lyase. The procedure: as §1
The target in data set [3] is Staphylococcus hominis PatB (cysteine-thiol lyase, PLP-dependent C-S lyase) (Staphylococcus hominis). Put plainly: crystal structure; ShPatB at 15 mg/mL in 20 mM Tris pH 8, 50 mM NaCl; hanging drops, 4% Tacsimate pH 6, 12% PEG 3,350, room temperature; without and with 20 mM L-cycloserine.

In the case of EcTnaA (Escherichia coli K-12), in data set [1], the Km was found to be 3300 µM, the kcat stood at 0.0117 s⁻¹ and the specificity constant (kcat/Km) amounted to 3.33 M⁻¹ s⁻¹. In addition, in data set [2], the Km is 2150 µM, the turnover number (kcat) was found to be 0.051 s⁻¹ and the catalytic efficiency (kcat/Km) was found to be 23.7 M⁻¹ s⁻¹.
In data set [3], “Staphylococcus hominis PatB (cysteine-thiol lyase, PLP-dependent C-S lyase) (enzyme)” returned a stoichiometry N of 2.
